We go through 11 proteins from publication PMC8892010.

Data set [1] can be described thus: inside-out patch clamp, G-V Boltzmann fits, 0 Ca2+. The following applies: glycan lost, untreated cells; for other: BK channel gating modulation: control: γ2 WT.
A short description of data set [2]: cell surface immunoprecipitation, N-terminal FLAG. The following applies: glycan lost, untreated cells; for localisation_or_trafficking, other: percent decrease: control: γ1 WT.
The nature of data set [3]: whole-cell lysate anti-FLAG immunoblot. The settings on record: glycan lost, untreated cells.
The nature of data set [4]: inside-out patch clamp, G-V, 0 Ca2+. The following applies: glycan lost; control: γ3 WT, untreated cells. In general terms: The patch-clamp technique gives a direct electrical read-out from membranes.

B1: BK channel γ1 subunit (LRRC26): tunicamycin (protein)
parent chain: MRGPSWSRPRPLLLLLLLLSPWPVWAQVSATASPSGSLGAPDCPEVCTCVPGGLASCSALSLPAVPPGLSLRLRALLLDHNRVRALPPGAFAGAGALQRLDLRENGLHSVHVRAFWGLGALQLLDLSANQLEALAPGTFAPLRALRNLSLAGNRLARLEPAALGALPLLRSLSLQDNELAALAPGLLGRLPALDALHLRGNPWGCGCALRPLCAWLRRHPLPASEAETVLCVWPGRLTLSPLTAFSDAAFSHCAQPLALRDLAVVYTLGPASFLVSLASCLALGSGLTACRARRRRLRTAALRPPRPPDPNPDPDPHGCASPADPGSPAAAAQA
With B1, in data set [1] (control: γ1 WT), the “other: BK channel gating modulation, other: fraction of channels not modulated” value is “decreases”. Besides, the “localisation_or_trafficking, other: percent decrease” value in data set [2] is given as “decreases”. Also, the expression_or_secretion result in data set [3] (control: γ1 WT) is “no change”.

B2: BK channel γ1 subunit (LRRC26): N147Q (protein)
parent chain: MRGPSWSRPRPLLLLLLLLSPWPVWAQVSATASPSGSLGAPDCPEVCTCVPGGLASCSALSLPAVPPGLSLRLRALLLDHNRVRALPPGAFAGAGALQRLDLRENGLHSVHVRAFWGLGALQLLDLSANQLEALAPGTFAPLRALRNLSLAGNRLARLEPAALGALPLLRSLSLQDNELAALAPGLLGRLPALDALHLRGNPWGCGCALRPLCAWLRRHPLPASEAETVLCVWPGRLTLSPLTAFSDAAFSHCAQPLALRDLAVVYTLGPASFLVSLASCLALGSGLTACRARRRRLRTAALRPPRPPDPNPDPDPHGCASPADPGSPAAAAQA
Consider B2, for which the “localisation_or_trafficking, other: percent decrease” value in data set [2] is given as “decreases”. Moreover, the expression_or_secretion result in data set [3] (control: γ1 WT) is “no change”.

B3: BK channel γ3 subunit (LRRC55): tunicamycin (protein)
parent chain: MGDTWAQLPWPGPPHPAMLLISLLLAAGLMHSDAGTSCPVLCTCRNQVVDCSSQRLFSVPPDLPMDTRNLSLAHNRITAVPPGYLTCYMELQVLDLHNNSLMELPRGLFLHAKRLAHLDLSYNNFSHVPADMFQEAHGLVHIDLSHNPWLRRVHPQAFQGLMQLRDLDLSYGGLAFLSLEALEGLPGLVTLQIGGNPWVCGCTMEPLLKWLRNRIQRCTADSQLAECRGPPEVEGAPLFSLTEESFKACHLTLTLDDYLFIAFVGFVVSIASVATNFLLGITANCCHRWSKASEEEEI
In the case of B3, in data set [2] (control: γ3 WT), the localisation_or_trafficking entry is on record as “abolishes”. Besides, the “other: BK channel gating modulation, other: V1/2” value in data set [4] was “abolishes, 160.1 ± 7.4 vs 115.0 ± 1.7”.

B4: BK channel γ2 subunit (LRRC52): N148Q (protein)
parent chain: MSLASGPGPGWLLFSFGMGLVSGSKCPNNCLCQAQEVICTGKQLTEYPLDIPLNTRRLFLNENRITSLPAMHLGLLSDLVYLDCQNNRIREVMDYTFIGVFKLIYLDLSSNNLTSISPFTFSVLSNLVQLNIANNPHLLSLHKFTFANTTSLRYLDLRNTGLQTLDSAALYHLTTLETLFLSGNPWKCNCSFLDFAIFLIVFHMDPSDDLNATCVEPTELTGWPITRVGNPLRYMCITHLDHKDYIFLLLIGFCIFAAGTVAAWLTGVCAVLYQNTRHKSSEEDEDEAGTRVEVSRRIFQTQTSSVQEFPQLI
For the protein B4, the “other: BK channel gating modulation” value in data set [1] was “decreases”.

B5: BK channel γ2 subunit (LRRC52): N148Q/N211Q (protein)
parent chain: MSLASGPGPGWLLFSFGMGLVSGSKCPNNCLCQAQEVICTGKQLTEYPLDIPLNTRRLFLNENRITSLPAMHLGLLSDLVYLDCQNNRIREVMDYTFIGVFKLIYLDLSSNNLTSISPFTFSVLSNLVQLNIANNPHLLSLHKFTFANTTSLRYLDLRNTGLQTLDSAALYHLTTLETLFLSGNPWKCNCSFLDFAIFLIVFHMDPSDDLNATCVEPTELTGWPITRVGNPLRYMCITHLDHKDYIFLLLIGFCIFAAGTVAAWLTGVCAVLYQNTRHKSSEEDEDEAGTRVEVSRRIFQTQTSSVQEFPQLI
For B5, in data set [1], the “other: BK channel gating modulation” value is given as “decreases”.

B6: BK channel γ2 subunit (LRRC52): N112Q/N211Q (protein)
parent chain: MSLASGPGPGWLLFSFGMGLVSGSKCPNNCLCQAQEVICTGKQLTEYPLDIPLNTRRLFLNENRITSLPAMHLGLLSDLVYLDCQNNRIREVMDYTFIGVFKLIYLDLSSNNLTSISPFTFSVLSNLVQLNIANNPHLLSLHKFTFANTTSLRYLDLRNTGLQTLDSAALYHLTTLETLFLSGNPWKCNCSFLDFAIFLIVFHMDPSDDLNATCVEPTELTGWPITRVGNPLRYMCITHLDHKDYIFLLLIGFCIFAAGTVAAWLTGVCAVLYQNTRHKSSEEDEDEAGTRVEVSRRIFQTQTSSVQEFPQLI
Regarding B6, in data set [1], the “other: BK channel gating modulation” value is on record as “decreases”.

B7: BK channel γ2 subunit (LRRC52): triple-site mutant (N112Q/N148Q/N211Q) (protein)
parent chain: MSLASGPGPGWLLFSFGMGLVSGSKCPNNCLCQAQEVICTGKQLTEYPLDIPLNTRRLFLNENRITSLPAMHLGLLSDLVYLDCQNNRIREVMDYTFIGVFKLIYLDLSSNNLTSISPFTFSVLSNLVQLNIANNPHLLSLHKFTFANTTSLRYLDLRNTGLQTLDSAALYHLTTLETLFLSGNPWKCNCSFLDFAIFLIVFHMDPSDDLNATCVEPTELTGWPITRVGNPLRYMCITHLDHKDYIFLLLIGFCIFAAGTVAAWLTGVCAVLYQNTRHKSSEEDEDEAGTRVEVSRRIFQTQTSSVQEFPQLI
For the protein B7, the expression_or_secretion result in data set [3] (control: γ2 WT) is given as “decreases”.

B8: BK channel γ2 subunit (LRRC52): N112Q/N148Q (protein)
parent chain: MSLASGPGPGWLLFSFGMGLVSGSKCPNNCLCQAQEVICTGKQLTEYPLDIPLNTRRLFLNENRITSLPAMHLGLLSDLVYLDCQNNRIREVMDYTFIGVFKLIYLDLSSNNLTSISPFTFSVLSNLVQLNIANNPHLLSLHKFTFANTTSLRYLDLRNTGLQTLDSAALYHLTTLETLFLSGNPWKCNCSFLDFAIFLIVFHMDPSDDLNATCVEPTELTGWPITRVGNPLRYMCITHLDHKDYIFLLLIGFCIFAAGTVAAWLTGVCAVLYQNTRHKSSEEDEDEAGTRVEVSRRIFQTQTSSVQEFPQLI
As for B8, the “other: BK channel gating modulation” value in data set [1] is on record as “decreases”.

B9: BK channel γ2 subunit (LRRC52): N112Q (protein)
parent chain: MSLASGPGPGWLLFSFGMGLVSGSKCPNNCLCQAQEVICTGKQLTEYPLDIPLNTRRLFLNENRITSLPAMHLGLLSDLVYLDCQNNRIREVMDYTFIGVFKLIYLDLSSNNLTSISPFTFSVLSNLVQLNIANNPHLLSLHKFTFANTTSLRYLDLRNTGLQTLDSAALYHLTTLETLFLSGNPWKCNCSFLDFAIFLIVFHMDPSDDLNATCVEPTELTGWPITRVGNPLRYMCITHLDHKDYIFLLLIGFCIFAAGTVAAWLTGVCAVLYQNTRHKSSEEDEDEAGTRVEVSRRIFQTQTSSVQEFPQLI
For B9, the “other: BK channel gating modulation” value in data set [1] is on record as “decreases”.

B10: BK channel γ2 subunit (LRRC52): tunicamycin (protein)
parent chain: MSLASGPGPGWLLFSFGMGLVSGSKCPNNCLCQAQEVICTGKQLTEYPLDIPLNTRRLFLNENRITSLPAMHLGLLSDLVYLDCQNNRIREVMDYTFIGVFKLIYLDLSSNNLTSISPFTFSVLSNLVQLNIANNPHLLSLHKFTFANTTSLRYLDLRNTGLQTLDSAALYHLTTLETLFLSGNPWKCNCSFLDFAIFLIVFHMDPSDDLNATCVEPTELTGWPITRVGNPLRYMCITHLDHKDYIFLLLIGFCIFAAGTVAAWLTGVCAVLYQNTRHKSSEEDEDEAGTRVEVSRRIFQTQTSSVQEFPQLI
Turning to B10, the “other: BK channel gating modulation” value in data set [1] was “abolishes”. Besides, the expression_or_secretion result in data set [3] (control: γ2 WT) is listed as “decreases”.

B11: BK channel γ2 subunit (LRRC52): N211Q (protein)
parent chain: MSLASGPGPGWLLFSFGMGLVSGSKCPNNCLCQAQEVICTGKQLTEYPLDIPLNTRRLFLNENRITSLPAMHLGLLSDLVYLDCQNNRIREVMDYTFIGVFKLIYLDLSSNNLTSISPFTFSVLSNLVQLNIANNPHLLSLHKFTFANTTSLRYLDLRNTGLQTLDSAALYHLTTLETLFLSGNPWKCNCSFLDFAIFLIVFHMDPSDDLNATCVEPTELTGWPITRVGNPLRYMCITHLDHKDYIFLLLIGFCIFAAGTVAAWLTGVCAVLYQNTRHKSSEEDEDEAGTRVEVSRRIFQTQTSSVQEFPQLI
In the case of B11, the “other: BK channel gating modulation” value in data set [1] was “decreases”.
